Assay results: US20050032681A1 (TEMPLE UNIV OF THE COMMONWEALTH SYSTEM OF HIGHER EDUCATION …, published 2005)

Experiments:
[1] = biological target: human α-thrombin (human, UniProt P00734 328-363; P00734 364-622); assay: pseudo-first-order thrombin inhibition kinetics, residual activity with S-2238, 25 C, polybrene
Procedure: (§1) Forty μL aliquots of ATIII samples at varying concentrations (450 nM, 300 nM, 150 nM) in PNE-PEG plus 50 μL polybrene (to neutralize any contaminating heparin) were preloaded into quadruplicate wells of a low-binding 96-well assay plate (Corning). The plate was maintained at 25° C., and 20 μL aliquots of 30 nM human thrombin or 15 nM human factor Xa were added to each of the four wells at successive 5 minute intervals. Reactions were quenched 5 minutes after addition of enzyme to the last of the wells by the adding 100 μL of 1.5 mM chromogenic substrate (S-2238 for thrombin; S-2765 for factor Xa). Residual enzyme activity was measured on a BioTek ELS11X kinetic plate reader controlled by a Macintosh SE with Deltasoft software. Initial rates of chromogenic substrate cleavage were monitored at 405 nm.

[2] = biological target: T1, human factor Xa (human, UniProt P00742 41-179; P00742 235-488, limits assumed); assay: pseudo-first-order factor Xa inhibition kinetics, residual activity with S-2765, 25 C, polybrene
T1 construct: that the active enzyme has two chains is from general knowledge
Procedure: as §1

[3] = biological target: T2, human neutrophil elastase (human, UniProt P08246 30-247, limits assumed); assay: cell-based or functional assay
T2 sequence (looked up): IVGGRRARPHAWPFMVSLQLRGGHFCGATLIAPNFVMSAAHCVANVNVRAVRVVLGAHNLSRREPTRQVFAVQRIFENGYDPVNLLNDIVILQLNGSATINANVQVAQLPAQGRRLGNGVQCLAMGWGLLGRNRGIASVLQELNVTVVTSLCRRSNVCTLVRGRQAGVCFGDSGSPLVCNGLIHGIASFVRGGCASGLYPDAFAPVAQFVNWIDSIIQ

T1 sequence (P00742 41-179 limits assumed, chain 1 of 2): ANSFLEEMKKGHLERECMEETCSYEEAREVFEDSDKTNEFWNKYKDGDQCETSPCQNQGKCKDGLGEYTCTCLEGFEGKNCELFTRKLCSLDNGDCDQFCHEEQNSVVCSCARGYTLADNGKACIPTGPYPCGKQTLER
T1 sequence (P00742 235-488 limits assumed, chain 2 of 2): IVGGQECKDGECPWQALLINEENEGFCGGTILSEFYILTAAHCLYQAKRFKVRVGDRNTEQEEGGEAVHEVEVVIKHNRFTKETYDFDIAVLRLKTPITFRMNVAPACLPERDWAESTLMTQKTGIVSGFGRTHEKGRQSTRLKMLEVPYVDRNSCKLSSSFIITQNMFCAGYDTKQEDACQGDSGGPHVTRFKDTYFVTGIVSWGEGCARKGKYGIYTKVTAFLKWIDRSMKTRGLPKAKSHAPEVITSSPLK

B1: 5EA modified ATIII (on human ATIII.N135A background) (other)
chain: HGSPVDICTAKPRDIPMNPMCIYRSPEKKATEDEGSEQKIPEATNRRVWELSKANSRFATTFYQHLADSKNDNDNIFLSPLSISTAFAMTKLGACNDTLQQLMEVFKFDTISEKTSDQIHFFFAKLNCRLYRKAAKSSKLVSANRLFGDKSLTFNETYQDISELVYGAKLQPLDFKENAEQSRAAINKWVSNKTEGRITDVIPSEAINELTVLVLVNTIYFKGLWKSKFSPENTRKELFYKADGESCSASMMYQEGKFRYRRVAEGTQVLELPFKGDDITMVLILPKPEKSLAKVEKELTPEVLQEWLDELEEMMLVVHMPRFRIEDGFSLKEQLQDMGLVDLFSPEKSKLPGIVAEGRDDLYVSDAFHKAFLEVNEEGSEAAASTAVEAAGRSLNPNRVTFKANRPFLVFIREVPLNTIIFMGRVANPCVK
notes: Recombinant, baculovirus/Sf9, N135A background; also called AT.5EA
With B1 the “kapp (apparent second-order rate constant of association)” value (“kapp” for short) [1] was 600 M⁻¹ s⁻¹, the “kapp” value [2] was 3100 M⁻¹ s⁻¹ and the “HNE resistance T1/2, min” value [3] was 3.2 min.

B2: Bb.C modified ATIII (on human ATIII.N135A background) (other)
chain: HGSPVDICTAKPRDIPMNPMCIYRSPEKKATEDEGSEQKIPEATNRRVWELSKANSRFATTFYQHLADSKNDNDNIFLSPLSISTAFAMTKLGACNDTLQQLMEVFKFDTISEKTSDQIHFFFAKLNCRLYRKAAKSSKLVSANRLFGDKSLTFNETYQDISELVYGAKLQPLDFKENAEQSRAAINKWVSNKTEGRITDVIPSEAINELTVLVLVNTIYFKGLWKSKFSPENTRKELFYKADGESCSASMMYQEGKFRYRRVAEGTQVLELPFKGDDITMVLILPKPEKSLAKVEKELTPEVLQEWLDELEEMMLVVHMPRFRIEDGFSLKEQLQDMGLVDLFSPEKSKLPGIVAEGRDDLYVSDAFHKAFLEVNEEGSEAAASEEGEASGRSLNPNRVTFKANRPFLVFIREVPLNTIIFMGRVANPCVK
modifications: Sf9-expressed glycoprotein: N-glycans expected at Asn 96, 155 and 192 (written N); Asn135 site removed by N135A.
In the case of B2, the “HNE resistance T1/2, min” value [3] is reported as 437 min.

B3: 13 A modified ATIII (on human ATIII.N135A background) (other)
chain: HGSPVDICTAKPRDIPMNPMCIYRSPEKKATEDEGSEQKIPEATNRRVWELSKANSRFATTFYQHLADSKNDNDNIFLSPLSISTAFAMTKLGACNDTLQQLMEVFKFDTISEKTSDQIHFFFAKLNCRLYRKAAKSSKLVSANRLFGDKSLTFNETYQDISELVYGAKLQPLDFKENAEQSRAAINKWVSNKTEGRITDVIPSEAINELTVLVLVNTIYFKGLWKSKFSPENTRKELFYKADGESCSASMMYQEGKFRYRRVAEGTQVLELPFKGDDITMVLILPKPEKSLAKVEKELTPEVLQEWLDELEEMMLVVHMPRFRIEDGFSLKEQLQDMGLVDLFSPEKSKLPGIVAEGRDDLYVSDAFHKAFLEVNEEGSEAAASTAVEGAGRSLNPNRVTFKANRPFLVFIREVPLNTIIFMGRVANPCVK
notes: Recombinant, baculovirus/Sf9, N135A background; also called AT.13.A
With B3 the “kapp” value [1] was 200 M⁻¹ s⁻¹, the “kapp” value [2] was 500 M⁻¹ s⁻¹ and the “HNE resistance T1/2, min” value [3] was 2.1 min.

B4: F2A′ modified ATIII (on human ATIII.N135A background) (other)
chain: HGSPVDICTAKPRDIPMNPMCIYRSPEKKATEDEGSEQKIPEATNRRVWELSKANSRFATTFYQHLADSKNDNDNIFLSPLSISTAFAMTKLGACNDTLQQLMEVFKFDTISEKTSDQIHFFFAKLNCRLYRKAAKSSKLVSANRLFGDKSLTFNETYQDISELVYGAKLQPLDFKENAEQSRAAINKWVSNKTEGRITDVIPSEAINELTVLVLVNTIYFKGLWKSKFSPENTRKELFYKADGESCSASMMYQEGKFRYRRVAEGTQVLELPFKGDDITMVLILPKPEKSLAKVEKELTPEVLQEWLDELEEMMLVVHMPRFRIEDGFSLKEQLQDMGLVDLFSPEKSKLPGIVAEGRDDLYVSDAFHKAFLEVNEEGSEAAASTQTPPNGRSLNPNRVTFKANRPFLVFIREVPLNTIIFMGRVANPCVK
B4 was tested, and the “HNE resistance T1/2, min” value [3] was 2.6 min.

B5: Bb.D modified ATIII (on human ATIII.N135A background) (other)
chain: HGSPVDICTAKPRDIPMNPMCIYRSPEKKATEDEGSEQKIPEATNRRVWELSKANSRFATTFYQHLADSKNDNDNIFLSPLSISTAFAMTKLGACNDTLQQLMEVFKFDTISEKTSDQIHFFFAKLNCRLYRKAAKSSKLVSANRLFGDKSLTFNETYQDISELVYGAKLQPLDFKENAEQSRAAINKWVSNKTEGRITDVIPSEAINELTVLVLVNTIYFKGLWKSKFSPENTRKELFYKADGESCSASMMYQEGKFRYRRVAEGTQVLELPFKGDDITMVLILPKPEKSLAKVEKELTPEVLQEWLDELEEMMLVVHMPRFRIEDGFSLKEQLQDMGLVDLFSPEKSKLPGIVAEGRDDLYVSDAFHKAFLEVNEEGSEAAASEEGEGSGRSLNPNRVTFKANRPFLVFIREVPLNTIIFMGRVANPCVK
notes: Recombinant, baculovirus/Sf9, N135A background; also called AT.Bb.D
In the case of B5, the “kapp” value [1] is reported as 100 M⁻¹ s⁻¹ and the “HNE resistance T1/2, min” value [3] is reported as over 45 min.

B6: 13.C modified ATIII (on human ATIII.N135A background) (other)
chain: HGSPVDICTAKPRDIPMNPMCIYRSPEKKATEDEGSEQKIPEATNRRVWELSKANSRFATTFYQHLADSKNDNDNIFLSPLSISTAFAMTKLGACNDTLQQLMEVFKFDTISEKTSDQIHFFFAKLNCRLYRKAAKSSKLVSANRLFGDKSLTFNETYQDISELVYGAKLQPLDFKENAEQSRAAINKWVSNKTEGRITDVIPSEAINELTVLVLVNTIYFKGLWKSKFSPENTRKELFYKADGESCSASMMYQEGKFRYRRVAEGTQVLELPFKGDDITMVLILPKPEKSLAKVEKELTPEVLQEWLDELEEMMLVVHMPRFRIEDGFSLKEQLQDMGLVDLFSPEKSKLPGIVAEGRDDLYVSDAFHKAFLEVNEEGSEAAASTELEGAGRSLNPNRVTFKANRPFLVFIREVPLNTIIFMGRVANPCVK
notes: Recombinant, baculovirus/Sf9, N135A background; also called AT.13.C
B6 was tested, and the “kapp” value [2] was 5100 M⁻¹ s⁻¹ and the “HNE resistance T1/2, min” value [3] was 10.1 min.

B7: 7EVEA modified ATIII (on human ATIII.N135A background) (other)
chain: HGSPVDICTAKPRDIPMNPMCIYRSPEKKATEDEGSEQKIPEATNRRVWELSKANSRFATTFYQHLADSKNDNDNIFLSPLSISTAFAMTKLGACNDTLQQLMEVFKFDTISEKTSDQIHFFFAKLNCRLYRKAAKSSKLVSANRLFGDKSLTFNETYQDISELVYGAKLQPLDFKENAEQSRAAINKWVSNKTEGRITDVIPSEAINELTVLVLVNTIYFKGLWKSKFSPENTRKELFYKADGESCSASMMYQEGKFRYRRVAEGTQVLELPFKGDDITMVLILPKPEKSLAKVEKELTPEVLQEWLDELEEMMLVVHMPRFRIEDGFSLKEQLQDMGLVDLFSPEKSKLPGIVAEGRDDLYVSDAFHKAFLEVNEEGSEAAASTEVEAAGRSLNPNRVTFKANRPFLVFIREVPLNTIIFMGRVANPCVK
notes: Recombinant, baculovirus/Sf9, N135A background; also called AT.7EVEA
B7 was tested, and the “kapp” value [1] was 600 M⁻¹ s⁻¹, the “kapp” value [2] was 4800 M⁻¹ s⁻¹ and the “HNE resistance T1/2, min” value [3] was 5.6 min.

B8: 13.B modified ATIII (on human ATIII.N135A background) (other)
chain: HGSPVDICTAKPRDIPMNPMCIYRSPEKKATEDEGSEQKIPEATNRRVWELSKANSRFATTFYQHLADSKNDNDNIFLSPLSISTAFAMTKLGACNDTLQQLMEVFKFDTISEKTSDQIHFFFAKLNCRLYRKAAKSSKLVSANRLFGDKSLTFNETYQDISELVYGAKLQPLDFKENAEQSRAAINKWVSNKTEGRITDVIPSEAINELTVLVLVNTIYFKGLWKSKFSPENTRKELFYKADGESCSASMMYQEGKFRYRRVAEGTQVLELPFKGDDITMVLILPKPEKSLAKVEKELTPEVLQEWLDELEEMMLVVHMPRFRIEDGFSLKEQLQDMGLVDLFSPEKSKLPGIVAEGRDDLYVSDAFHKAFLEVNEEGSEAAASTEVEGAGRSLNPNRVTFKANRPFLVFIREVPLNTIIFMGRVANPCVK
notes: Recombinant, baculovirus/Sf9, N135A background; also called AT.13.B
With B8 the “kapp” value [2] was 2800 M⁻¹ s⁻¹ and the “HNE resistance T1/2, min” value [3] was 7.6 min.

B9: Aa modified ATIII (on human ATIII.N135A background) (other)
chain: HGSPVDICTAKPRDIPMNPMCIYRSPEKKATEDEGSEQKIPEATNRRVWELSKANSRFATTFYQHLADSKNDNDNIFLSPLSISTAFAMTKLGACNDTLQQLMEVFKFDTISEKTSDQIHFFFAKLNCRLYRKAAKSSKLVSANRLFGDKSLTFNETYQDISELVYGAKLQPLDFKENAEQSRAAINKWVSNKTEGRITDVIPSEAINELTVLVLVNTIYFKGLWKSKFSPENTRKELFYKADGESCSASMMYQEGKFRYRRVAEGTQVLELPFKGDDITMVLILPKPEKSLAKVEKELTPEVLQEWLDELEEMMLVVHMPRFRIEDGFSLKEQLQDMGLVDLFSPEKSKLPGIVAEGRDDLYVSDAFHKAFLEVNEEGSEAAASTAEGGGGRSLNPNRVTFKANRPFLVFIREVPLNTIIFMGRVANPCVK
notes: Recombinant, baculovirus/Sf9, N135A background; also called AT.Aa
In the case of B9, the “kapp” value [1] is reported as 400 M⁻¹ s⁻¹, the “kapp” value [2] is reported as 400 M⁻¹ s⁻¹ and the “HNE resistance T1/2, min” value [3] is reported as 9.1 min.

B10: 13.D modified ATIII (on human ATIII.N135A background) (other)
chain: HGSPVDICTAKPRDIPMNPMCIYRSPEKKATEDEGSEQKIPEATNRRVWELSKANSRFATTFYQHLADSKNDNDNIFLSPLSISTAFAMTKLGACNDTLQQLMEVFKFDTISEKTSDQIHFFFAKLNCRLYRKAAKSSKLVSANRLFGDKSLTFNETYQDISELVYGAKLQPLDFKENAEQSRAAINKWVSNKTEGRITDVIPSEAINELTVLVLVNTIYFKGLWKSKFSPENTRKELFYKADGESCSASMMYQEGKFRYRRVAEGTQVLELPFKGDDITMVLILPKPEKSLAKVEKELTPEVLQEWLDELEEMMLVVHMPRFRIEDGFSLKEQLQDMGLVDLFSPEKSKLPGIVAEGRDDLYVSDAFHKAFLEVNEEGSEAAASTALEGAGRSLNPNRVTFKANRPFLVFIREVPLNTIIFMGRVANPCVK
notes: Recombinant, baculovirus/Sf9, N135A background; also called AT.13.D
For B10, the “kapp” value [2] was 3300 M⁻¹ s⁻¹ and the “HNE resistance T1/2, min” value [3] was 2.6 min.
